Source: patent publication US20220401544A1

How the values were obtained:
[1] = target: N. meningitidis serogroup B factor H binding protein (FHbp, LP2086) variant A15 (Neisseria meningitidis serogroup B); test: MEASURE flow cytometry, median over MenB isolates expressing A15
[2] = target: N. meningitidis serogroup B factor H binding protein (FHbp, LP2086) variant A22 (Neisseria meningitidis serogroup B); test: MEASURE flow cytometry, median over MenB isolates expressing A22
[3] = target: N. meningitidis serogroup B factor H binding protein (FHbp, LP2086) variant B15 (Neisseria meningitidis serogroup B) (UniProt E6MV22); test: MEASURE flow cytometry, median over MenB isolates expressing B15
[4] = target: N. meningitidis serogroup B factor H binding protein (fHBP, LP2086) variant B13 (Neisseria meningitidis serogroup B) (UniProt E6MV22)
[5] = target: N. meningitidis serogroup B factor H binding protein (fHBP, LP2086) variant A63 (Neisseria meningitidis serogroup B)
[6] = target: N. meningitidis serogroup B factor H binding protein (fHBP, LP2086) variant B107 (Neisseria meningitidis serogroup B)
[7] = target: N. meningitidis serogroup B factor H binding protein (fHBP, LP2086) variant B08 (Neisseria meningitidis serogroup B) (UniProt E6MV22)
[8] = target: N. meningitidis serogroup B factor H binding protein (fHBP, LP2086) variant A42 (Neisseria meningitidis serogroup B)
[9] = target: N. meningitidis serogroup B factor H binding protein (fHBP, LP2086) variant A28 (Neisseria meningitidis serogroup B)
[10] = target: N. meningitidis serogroup B factor H binding protein (fHBP, LP2086) variant A02 (Neisseria meningitidis serogroup B)
[11] = target: N. meningitidis serogroup B factor H binding protein (fHBP, LP2086) variant B07 (Neisseria meningitidis serogroup B) (UniProt E6MV22)
[12] = target: N. meningitidis serogroup B factor H binding protein (fHBP, LP2086) variant B52 (Neisseria meningitidis serogroup B) (UniProt E6MV22)
[13] = target: N. meningitidis serogroup B factor H binding protein (fHBP, LP2086) variant B05 (Neisseria meningitidis serogroup B) (UniProt E6MV22)
[14] = target: N. meningitidis serogroup B factor H binding protein (fHBP, LP2086) variant A76 (Neisseria meningitidis serogroup B)
[15] = target: N. meningitidis serogroup B factor H binding protein (FHbp, LP2086) variant B16 (Neisseria meningitidis serogroup B) (UniProt E6MV22)
[16] = target: N. meningitidis serogroup B factor H binding protein (FHbp, LP2086) variant B44 (Neisseria meningitidis serogroup B)
[17] = target: N. meningitidis serogroup B factor H binding protein (FHbp, LP2086) variant A19 (Neisseria meningitidis serogroup B)
[18] = target: N. meningitidis serogroup B factor H binding protein (FHbp, LP2086) variant B03 (Neisseria meningitidis serogroup B) (UniProt E6MV22)
[19] = target: N. meningitidis serogroup B factor H binding protein (FHbp, LP2086) variant B15 (Neisseria meningitidis serogroup B) (UniProt E6MV22)
[20] = target: N. meningitidis serogroup B factor H binding protein (FHbp, LP2086) variant A07 (Neisseria meningitidis serogroup B)
[21] = target: N. meningitidis serogroup B factor H binding protein (FHbp, LP2086) variant A15 (Neisseria meningitidis serogroup B)
[22] = target: N. meningitidis serogroup B factor H binding protein (FHbp, LP2086) variant B09 (Neisseria meningitidis serogroup B) (UniProt E6MV22)
[23] = target: N. meningitidis serogroup B factor H binding protein (FHbp, LP2086) variant A06 (Neisseria meningitidis serogroup B)
[24] = target: N. meningitidis serogroup B factor H binding protein (FHbp, LP2086) variant A56 (Neisseria meningitidis serogroup B)
[25] = target: N. meningitidis serogroup B factor H binding protein (FHbp, LP2086) variant B24 (Neisseria meningitidis serogroup B) (UniProt E6MV22)
[26] = target: N. meningitidis serogroup B factor H binding protein (FHbp, LP2086) variant A22 (Neisseria meningitidis serogroup B)
[27] = target: N. meningitidis serogroup B factor H binding protein (FHbp, LP2086) variant A12 (Neisseria meningitidis serogroup B)
[28] = target: N. meningitidis serogroup B factor H binding protein (FHbp, LP2086) variant A29 (Neisseria meningitidis serogroup B)
[29] = target: N. meningitidis serogroup B factor H binding protein (FHbp, LP2086) variant B09 (Neisseria meningitidis serogroup B) (UniProt E6MV22); test: MEASURE flow cytometry, median over MenB isolates expressing B09
[30] = target: N. meningitidis serogroup B factor H binding protein (FHbp, LP2086) variant B24 (Neisseria meningitidis serogroup B) (UniProt E6MV22); test: MEASURE flow cytometry, median over MenB isolates expressing B24
[31] = target: N. meningitidis factor H binding protein (fHBP) variant A10 (Neisseria meningitidis serogroup B)
[32] = target: N. meningitidis serogroup B factor H binding protein (fHBP) variant A40 (Neisseria meningitidis serogroup B)
[33] = target: N. meningitidis serogroup B factor H binding protein (fHBP) variant B91 (Neisseria meningitidis serogroup B)
[34] = target: N. meningitidis serogroup B factor H binding protein (fHBP) variant B10 (Neisseria meningitidis serogroup B)
[35] = target: N. meningitidis serogroup B factor H binding protein (fHBP) variant A08 (Neisseria meningitidis serogroup B)
[36] = target: N. meningitidis serogroup B factor H binding protein (fHBP) variant A20 (Neisseria meningitidis serogroup B)
[37] = target: N. meningitidis serogroup B factor H binding protein (fHBP) variant A52 (Neisseria meningitidis serogroup B)
[38] = target: N. meningitidis serogroup B factor H binding protein (FHbp, LP2086) variant A29 (Neisseria meningitidis serogroup B); test: MEASURE flow cytometry, median over MenB isolates expressing A29
[39] = target: N. meningitidis serogroup B factor H binding protein (FHbp, LP2086) variant B44 (Neisseria meningitidis serogroup B); test: MEASURE flow cytometry, median over MenB isolates expressing B44
[40] = target: N. meningitidis serogroup B factor H binding protein (FHbp, LP2086) variant A19 (Neisseria meningitidis serogroup B); test: MEASURE flow cytometry, median over MenB isolates expressing A19
[41] = target: N. meningitidis serogroup B factor H binding protein (FHbp, LP2086) variant B03 (Neisseria meningitidis serogroup B) (UniProt E6MV22); test: MEASURE flow cytometry, median over MenB isolates expressing B03
[42] = target: N. meningitidis serogroup B factor H binding protein (FHbp, LP2086) variant A12 (Neisseria meningitidis serogroup B); test: MEASURE flow cytometry, median over MenB isolates expressing A12
[43] = target: N. meningitidis serogroup B factor H binding protein (FHbp, LP2086) variant B16 (Neisseria meningitidis serogroup B) (UniProt E6MV22); test: MEASURE flow cytometry, median over MenB isolates expressing B16
[44] = target: N. meningitidis serogroup B factor H binding protein (FHbp, LP2086) variant A56 (Neisseria meningitidis serogroup B); test: MEASURE flow cytometry, variant group A56 (only one strain)
[45] = target: N. meningitidis serogroup B factor H binding protein (FHbp, LP2086) variant A06 (Neisseria meningitidis serogroup B); test: MEASURE flow cytometry, median over MenB isolates expressing A06

Work on monoclonal antibody MN86-994-11 yielded an FHbp Variant Group MEASURE MFI Median [1] of 2900 MFI, an FHbp Variant Group MEASURE MFI Median [2] of 2500 MFI and an FHbp Variant Group MEASURE MFI Median [3] of 4820 MFI. It also gave a fHBP Expression (MFI) [4] of 1850 MFI, a fHBP Expression (MFI) [5] of 10800 MFI and a fHBP Expression (MFI) [6] of 11100 MFI. It also gave a fHBP Expression (MFI) [7] of 1560 MFI, a fHBP Expression (MFI) [8] of 1610 MFI and a fHBP Expression (MFI) [9] of 4190 MFI. It also gave a fHBP Expression (MFI) [10] of 13200 MFI, a fHBP Expression (MFI) [11] of 1350 MFI and a fHBP Expression (MFI) [12] of 8730 MFI. The fHBP Expression (MFI) [13] was 2920 MFI, the fHBP Expression (MFI) [14] was 11300 MFI and the Strain MEASURE MFI [15] was 2350 MFI. It also gave a Strain MEASURE MFI [16] of 11300 MFI, a Strain MEASURE MFI [17] of 1930 MFI and a Strain MEASURE MFI [18] of 3980 MFI. It also gave a Strain MEASURE MFI [19] of 3780 MFI, an FHbp Variant Group MEASURE MFI Median [20] of 1100 MFI and a Strain MEASURE MFI [20] of 1380 MFI. For the same substance, the Strain MEASURE MFI [21] was 3000 MFI, the Strain MEASURE MFI [22] was 2090 MFI and the Strain MEASURE MFI [23] was 3370 MFI. The Strain MEASURE MFI [24] was 5000 MFI, the Strain MEASURE MFI [25] was 6970 MFI and the Strain MEASURE MFI [26] was 3130 MFI. The Strain MEASURE MFI [27] was 2540 MFI, the Strain MEASURE MFI [28] was 3840 MFI and the FHbp Variant Group MEASURE MFI Median [29] was 2280 MFI. For the same substance, the FHbp Variant Group MEASURE MFI Median [30] was 8460 MFI, the fHBP Expression (MFI) [31] was less than 1000 MFI and the fHBP Expression (MFI) [32] was less than 1000 MFI. The fHBP Expression (MFI) [33] was less than 1000 MFI, the fHBP Expression (MFI) [34] was less than 1000 MFI and the fHBP Expression (MFI) [35] was less than 1000 MFI. For the same substance, the fHBP Expression (MFI) [36] was less than 1000 MFI, the fHBP Expression (MFI) [37] was less than 1000 MFI and the FHbp Variant Group MEASURE MFI Median [38] was 5990 MFI. The FHbp Variant Group MEASURE MFI Median [39] was 14800 MFI, the FHbp Variant Group MEASURE MFI Median [40] was 1760 MFI and the FHbp Variant Group MEASURE MFI Median [41] was 2940 MFI. For the same substance, the FHbp Variant Group MEASURE MFI Median [42] was 2470 MFI, the FHbp Variant Group MEASURE MFI Median [43] was 2000 MFI and the FHbp Variant Group MEASURE MFI Median [44] was 5000 MFI. The FHbp Variant Group MEASURE MFI Median [45] was 3090 MFI.
